The labels stand for the following.
B1: OAS1 (parent)
chain: LTVYAWERGSMKTHFNTAQGFRTV
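Note: lentivirally expressed fusions sorted by FACS into six bins by GFP to DsRed ratio, PSI derived from sequencing read proportions per bin multiplied by bin number.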

The variants in the data set derive from B1. Briefly: protein stability index of a GFP-peptide fusion (GPS, HEK-293T) (PSI 1-6); higher = more stable. The settings on record: c terminus: a fixed tail appended.
For LTVYAWERGSMKEHFNTAQGFRTV [T13E], the protein stability index was 2.06. To LTVYAWERGSMKKHFNTAQGFRTV [T13K] belongs 1.51; to LTVYAWERGSMKWHFNTAQGFRTV [T13W], 3.26. The value for LTVYAWERGSMKHHFNTAQGFRTV [T13H] was 1.83; that for LTVYAWERGSMKTHFFTAQGFRTV [N16F] was 3.37. Turning to LTVYAWERGSMKTHFTTAQGFRTV [N16T], the protein stability index is 2.45.

Take LTVYAWERGSMKTHFVTAQGFRTV [N16V]: the protein stability index worked out at 3.22. To LTVYAWERGSMKTHFDTAQGFRTV [N16D] belongs 1.66; to LTVYAWERGSMKTHFATAQGFRTV [N16A], 3.67; to LTVYAWERGSMKTHFMTAQGFRTV [N16M], 3.47. On to LTVYAWERGSMKTHFRTAQGFRTV [N16R], for which the protein stability index was 1.53. The value for LTVYAWERGSMKTHFETAQGFRTV [N16E] was 2.21; that for LTVYAWERGSMKTHFCTAQGFRTV [N16C] was 2.63; that for LTVYAWERGSMKTHFWTAQGFRTV [N16W] was 3.85. The value for LTVYAWERGSMKTHFQTAQGFRTV [N16Q] was 2.83; that for LTVYAWERGSMKTHFKTAQGFRTV [N16K] was 3.06. As to LTVYAWERGSMKTHFGTAQGFRTV [N16G], the protein stability index amounted to 3.06.

With LTVYAWERGSMKTHFSTAQGFRTV [N16S], the protein stability index is 3.5. The value for LTVYAWERGSMKTHFHTAQGFRTV [N16H] was 2.69; that for LTVYAWERGSMKTHFYTAQGFRTV [N16Y] was 1.95; that for LTVYAWERGSMKTHFLTAQGFRTV [N16L] was 2.23.

Take LTVYAWERGSMKTHFNTAWGFRTV [Q19W]: the protein stability index was 1.62.

For the variant LTVYAWERGSMKTHFNTAGGFRTV [Q19G], the protein stability index is 2.64. To LTVYAWERGSMKTHFNTAEGFRTV [Q19E] belongs 2.52; to LTVYAWERGSMKTHFNTAMGFRTV [Q19M], 3.27.

As to LTVYAWERGSMKTHFNTARGFRTV [Q19R], the protein stability index is 2.22. As to LTVYAWERGSMKTHFNTAHGFRTV [Q19H], the protein stability index is 2.65. LTVYAWERGSMKTHFNTAIGFRTV [Q19I]: the protein stability index was found to be 3.54. The value for LTVYAWERGSMKTHFNTATGFRTV [Q19T] was 2.88; that for LTVYAWERGSMKTHFNTAFGFRTV [Q19F] was 3.35.

LTVYAWERGSMKTHFNTANGFRTV [Q19N]: the protein stability index amounted to 2.92. Turning to LTVYAWERGSMKTHFNTASGFRTV [Q19S], the protein stability index was 2.63. LTVYAWERGSMKTHFNTAPGFRTV [Q19P]: the protein stability index is 3.02. Consider LTVYAWERGSMKTHFNTALGFRTV [Q19L], for which the protein stability index is 3.4. To LTVYAWERGSMKTHFNTADGFRTV [Q19D] belongs 4.39; to LTVYAWERGSMKTHFNTACGFRTV [Q19C], 3.17. To LTVYAWERGSMKTHFNTAVGFRTV [Q19V] belongs 3.84; to LTVYAWERGSMKTHFNTAYGFRTV [Q19Y], 3.25. The value for LTVYAWERGSMKTHFNTAAGFRTV [Q19A] was 2.23. In the case of LTVYAWERGSMKTHFNTAKGFRTV [Q19K], the protein stability index was 2.43. To LTVYAWERGSMKTHFNNAQGFRTV [T17N] belongs 1.72; to LTVYAWERGSMKTHFNMAQGFRTV [T17M], 1.74. As for LTVYAWERGSMKTHFNRAQGFRTV [T17R], the protein stability index came to 2.38. As to LTVYAWERGSMKTHFNGAQGFRTV [T17G], the protein stability index worked out at 2.67.

In the case of LTVYAWERGSMKTHFNLAQGFRTV [T17L], the protein stability index is 2.17.

For LTVYAWERGSMKTHFNAAQGFRTV [T17A], the protein stability index turned out to be 1.69. To LTVYAWERGSMKTHFNFAQGFRTV [T17F] belongs 2.25; to LTVYAWERGSMKTHFNKAQGFRTV [T17K], 2.48; to LTVYAWERGSMKTHFNHAQGFRTV [T17H], 2.95. As for LTVYAWERGSMKTHFNYAQGFRTV [T17Y], the protein stability index is 2.64. To LTVYAWERGSMKTHFNIAQGFRTV [T17I] belongs 3.17; to LTVYAWERGSMKTHFNPAQGFRTV [T17P], 2.2. Consider LTVYAWERGSMKTHFNDAQGFRTV [T17D], for which the protein stability index stood at 2.33.

Regarding LTVYAWERGSMKTHFNEAQGFRTV [T17E], the protein stability index came to 1.61. The value for LTVYAWERGSMKTHFNSAQGFRTV [T17S] was 3.12; that for LTVYAWERGSMKTHFNCAQGFRTV [T17C] was 1.78. LTVYAWERGSMKTHFNQAQGFRTV [T17Q]: the protein stability index is 4.87. To LTVYAWERGSMKTHFNWAQGFRTV [T17W] belongs 2.1; to LTVYAWERGSMKTPFNTAQGFRTV [H14P], 2.56; to LTVYAWERGSMKTWFNTAQGFRTV [H14W], 2.76. To LTVYAWERGSMKTQFNTAQGFRTV [H14Q] belongs 1.75; to LTVYAWERGSMKTSFNTAQGFRTV [H14S], 2.44; to LTVYAWERGSMKTEFNTAQGFRTV [H14E], 2.42. The value for LTVYAWERGSMKTIFNTAQGFRTV [H14I] was 2.29.

For LTVYAWERGSMKTYFNTAQGFRTV [H14Y], the protein stability index came to 2.75. For LTVYAWERGSMKTDFNTAQGFRTV [H14D], the protein stability index was 2.33. The value for LTVYAWERGSMKTFFNTAQGFRTV [H14F] was 2.8; that for LTVYAWERGSMKTNFNTAQGFRTV [H14N] was 1.74; that for LTVYAWERGSMKTMFNTAQGFRTV [H14M] was 3.15. To LTVYAWERGSMKTKFNTAQGFRTV [H14K] belongs 2.35; to LTVYAWERGSMKTGFNTAQGFRTV [H14G], 1.69; to LTVYAWERGSMKTRFNTAQGFRTV [H14R], 3.04. Regarding LTVYAWERGSMKTTFNTAQGFRTV [H14T], the protein stability index stood at 2.86.

Regarding LTVYAWERGSMKTLFNTAQGFRTV [H14L], the protein stability index was 2.88. As to LTVYAWERGSMKTVFNTAQGFRTV [H14V], the protein stability index is 3.57. Take LTVYAWERGSMYTHFNTAQGFRTV [K12Y]: the protein stability index worked out at 2.49. To LTVYAWERGSMNTHFNTAQGFRTV [K12N] belongs 2.66; to LTVYAWERGSMFTHFNTAQGFRTV [K12F], 1.8; to LTVYAWERGSMWTHFNTAQGFRTV [K12W], 2.8. To LTVYAWERGSMHTHFNTAQGFRTV [K12H] belongs 2.87; to LTVYAWERGSMSTHFNTAQGFRTV [K12S], 4.72; to LTVYAWERGSMQTHFNTAQGFRTV [K12Q], 2.43. To LTVYAWERGSMVTHFNTAQGFRTV [K12V] belongs 2.45; to LTVYAWERGSMLTHFNTAQGFRTV [K12L], 2.72; to LTVYAWERGSMGTHFNTAQGFRTV [K12G], 1.54. With LTVYAWERGSMATHFNTAQGFRTV [K12A], the protein stability index came out at 3.08. As for LTVYAWERGSMETHFNTAQGFRTV [K12E], the protein stability index amounted to 2.22.

Regarding LTVYAWERGSMTTHFNTAQGFRTV [K12T], the protein stability index is 2.98. The value for LTVYAWERGSMCTHFNTAQGFRTV [K12C] was 3.27.

As to LTVYAWERGSMITHFNTAQGFRTV [K12I], the protein stability index worked out at 2.98. LTVYAWERGSMPTHFNTAQGFRTV [K12P]: the protein stability index came to 5.14. As to LTVYAWERGSMRTHFNTAQGFRTV [K12R], the protein stability index was 1.51.

For the variant LTVYAWERGSMMTHFNTAQGFRTV [K12M], the protein stability index came to 3.75. Take LTVYAWERGSMDTHFNTAQGFRTV [K12D]: the protein stability index came out at 2.29.

The record behind these values is the supplement of paper PMC10567573.
